Measured values reported in article PMC9811684 (2023).

Legend:
Test in all cases: multimer staining
[1] = molecular target: T1, SARS-CoV-2 spike protein (SPIKE) peptide on HLA-A*24:02 (human)
T1 peptide: QYIKWPWYIW

[2] = molecular target: T2, OC43 spike protein peptide on HLA-A*24:02 (human)
T2 peptide: YYVKWPWYVW

[3] = molecular target: T3, HKU1 spike protein peptide on HLA-A*24:02 (human)
T3 peptide: MYVKWPWYVW

[4] = molecular target: T4, NL63 spike protein peptide on HLA-A*24:02 (human)
T4 peptide: NYIKWPWWVW

[5] = molecular target: T5, SARS-CoV-2 spike protein (SPIKE) peptide on HLA-A*23:01 (human)
T5 peptide: QYIKWPWYIW

[6] = molecular target: T6, SARS-CoV-1 spike protein peptide on HLA-A*24:02 (human)
T6 peptide: QYIKWPWYVW

[7] = molecular target: T7, 229E spike protein peptide on HLA-A*24:02 (human)
T7 peptide: TYIKWPWWVW

Measured: binding result

B1: TCRQYI (TCR)
alpha TRAV20*01 TRAJ32*01 CDR3: CAALNYGGATNKLIF
beta TRBV4-3*01 TRBJ2-7*01 CDR3: CASSPSGGAYEQYF
recognises: all assays above
